In paper PMC8252718, “carba Nicotinamide Adenine Dinucleotide Phosphate: Robust Cofactor for Redox Biocatalysis” (Angewandte Chemie (International Ed. in English), 2021):

What was measured:
[1] = substrate: NC(=O)c1ccc[n+]([C@@H]2C[C@H](COP(=O)(O)OP(=O)(O)OC[C@H]3O[C@@H](n4cnc5c(N)ncnc54)[C@H](OP(=O)(O)O)[C@@H]3O)[C@@H](O)[C@H]2O)c1; experiment: purified protein, by the assay type; parameters: Spectrophotometric steady-state kinetics with varied oxidised cofactor in 96-well plates; settings: pH 8.0
Excerpt: (§1) 12 cofactor concentrations of both cofactors ([NADP+ ] or [cNADP+ ]) x 2 (duplicates) = 48 reaction mixtures The enzyme concentration [E] as well as the buffer concentration [buffer] and the measurement conditions ( such as temperature of measurement (Tmeasure); volume (V), preheating time (theat), sequence of process steps (pipetting, preheating, addition of enzyme and measurement) were kept constant for the measurements of a kinetic. The reaction mixtures were pipetted in MTPs with the help of LHS, followed by preheating of the mixture and addition of 25 µL of enzyme solution was added with an electric MCP in multi-dispense mode, and measurement in an Epoch 2 - BioTek photometer. […] Detailed values of concentrations and reaction conditions can be found in the corresponding figures and their discriptons. SUPPORTING INFORMATION S5 Enzymatic activity measurements for NADP+ and carba-NADP+ All assays were performed in 96-well MTP plates in a reaction volume of 200 µL. Reactions were started by adding the enzyme. A detailed overview is given in (Table 2) showing the preferred reaction, the acceptance towards both cofactors (NADP(H) and carba-NADP(H)) and further reaction conditions. For all reactions, multiple negative reactions, were performed without adding a cofactor, enzyme or substrate, respectively. Production of carba-NADP+ The cofactor carba-NADP+ was prepared according to literature(WO 2011/012270 A1) by means of chemical and biocatalytical methods.[2] […] Reaction was followed spectrophotometrically. After full reduction, SsGDH was removed using a centrifugal filter with 10 kDa cut-off. The reduced cofactor was stored at -80 °C until further use. 10 mM stock was diluted 1:10 within the final reaction mixture. Biocatalytic approaches using (carba)-NADPH thus contained 2 mM glucose, 1 mM gluconic acid and 0.2 mM Tris-HCl as contaminants.

[2] = substrate: NC(=O)c1ccc[n+]([C@@H]2O[C@H](COP(=O)(O)OP(=O)(O)OC[C@H]3O[C@@H](n4cnc5c(N)ncnc54)[C@H](OP(=O)(O)O)[C@@H]3O)[C@@H](O)[C@H]2O)c1; experiment: purified protein, by the assay type; parameters: Spectrophotometric steady-state kinetics with varied oxidised cofactor in 96-well plates; settings: pH 8.0
Excerpt: as §1

steady-state kinetics [3] = substrate: NC(=O)c1ccc[n+]([C@@H]2C[C@H](COP(=O)(O)OP(=O)(O)OC[C@H]3O[C@@H](n4cnc5c(N)ncnc54)[C@H](OP(=O)(O)O)[C@@H]3O)[C@@H](O)[C@H]2O)c1; experiment: steady-state kinetics; format: biochemical, Saccharolobus solfataricus; settings: sugar oxidation; D-glucose activity about half of that with NADP+; varied: cofactor
Excerpt: (§2) steady-state kinetics on SsGDH | Looking deeper into the kinetic parameters of a selection of five enzymes | decreased Michaelis constant (K m) for the biomimetic for most of the enzymes

steady-state kinetics [4] = substrate: NC(=O)c1ccc[n+]([C@@H]2O[C@H](COP(=O)(O)OP(=O)(O)OC[C@H]3O[C@@H](n4cnc5c(N)ncnc54)[C@H](OP(=O)(O)O)[C@@H]3O)[C@@H](O)[C@H]2O)c1; experiment: steady-state kinetics; format: biochemical, Saccharolobus solfataricus; settings: sugar oxidation; natural cofactor; varied: cofactor
Excerpt: as §2

B1: LmG6PDH (Leuconostoc mesenteroides) (protein)
chain: VSEIKTLVTFFGGTGDLAKRKLYPSVFNLYKKGYLQKHFAIVGTARQALNDDEFKQLVRDSIKDFTDDQAQAEAFIEHFSYRAHDVTDAASYAVLKEAIEEAADKFDIDGNRIFYMSVAPRFFGTIAKYLKSEGLLADTGYNRLMIEKPFGTSYDTAAELQNDLENAFDDNQLFRIDHYLGKEMVQNIAALRFGNPIFDAAWNKDYIKNVQVTLSEVLGVEERAGYYDTAGALLDMIQNHTMQIVGWLAMEKPESFTDKDIRAAKNAAFNALKIYDEAEVNKYFVRAQYGAGDSADFKPYLEELDVPADSKNNTFIAGELQFDLPRWEGVPFYVRSGKRLAAKQTRVDIVFKAGTFNFGSEQEAQEAVLSIIIDPKGAIELKLNAKSVEDAFNTRTIDLGWTVSDEDKKNTPEPYERMIHDTMNGDGSNFADWNGVSIAWKFVDAISAVYTADKAPLETYKSGSMGPEASDKLLAANGDAWVFKG
notes: details only in supplement
Km [1]: 27 µM
Vmax [1]: 45 µmol/min/mg
kcat [1]: 40.7 s⁻¹
kcat/Km [1]: 1.51e+06 M⁻¹ s⁻¹
Km [2]: 75 µM
Vmax [2]: 166 µmol/min/mg
kcat [2]: 150 s⁻¹
kcat/Km [2]: 2e+06 M⁻¹ s⁻¹

B2: ScG6PDH (Saccharomyces cerevisiae S288C) (protein)
chain: SEGPVKFEKNTVISVFGASGDLAKKKTFPALFGLFREGYLDPSTKIFGYARSKLSMEEDLKSRVLPHLKKPHGEADDSKVEQFFKMVSYISGNYDTDEGFDELRTQIEKFEKSANVDVPHRLFYLALPPSVFLTVAKQIKSRVYAENGITRVIVEKPFGHDLASARELQKNLGPLFKEEELYRIDHYLGKELVKNLLVLRFGNQFLNASWNRDNIQSVQISFKERFGTEGRGGYFDSIGIIRDVMQNHLLQIMTLLTMERPVSFDPESIRDEKVKVLKAVAPIDTDDVLLGQYGKSEDGSKPAYVDDDTVDKDSKCVTFAAMTFNIENERWEGVPIMMRAGKALNESKVEIRLQYKAVASGVFKDIPNNELVIRVQPDAAVYLKFNAKTPGLSNATQVTDLNLTYASRYQDFWIPEAYEVLIRDALLGDHSNFVRDDELDISWGIFTPLLKHIERPDGPTPEIYPYGSRGPKGLKEYMQKHKYVMPEKHPYAWPVTKPEDTKDN
notes: details only in supplement
Km [1]: 26 µM
Vmax [1]: 14 µmol/min/mg
kcat [1]: 13.4 s⁻¹
kcat/Km [1]: 516000 M⁻¹ s⁻¹
Km [2]: 157 µM
Vmax [2]: 245 µmol/min/mg
kcat [2]: 235 s⁻¹
kcat/Km [2]: 1.5e+06 M⁻¹ s⁻¹

B3: SsGDH (Saccharolobus solfataricus) (protein)
chain: MKAIIVKPPNAGVQVKDVDEKKLDSYGKIKIRTIYNGICGTDREIVNGKLTLSTLPKGKDFLVLGHEAIGVVEESYHGFSQGDLVMPVNRRGCGICRNCLVGRPDFCETGEFGEAGIHKMDGFMREWWYDDPKYLVKIPKSIEDIGILAQPLADIEKSIEEILEVQKRVPVWTCDDGTLNCRKVLVVGTGPIGVLFTLLFRTYGLEVWMANRREPTEVEQTVIEETKTNYYNSSNGYDKLKDSVGKFDVIIDATGADVNILGNVIPLLGRNGVLGLFGFSTSGSVPLDYKTLQEIVHTNKTIIGLVNGQKPHFQQAVVHLASWKTLYPKAAKMLITKTVSINDEKELLKVLREKEHGEIKIRILWE
notes: details only in supplement
Km (steady-state kinetics [3]): 10 µM
kcat (steady-state kinetics [3]): 1.0 s⁻¹
Km (steady-state kinetics [4]): 80 µM
kcat (steady-state kinetics [4]): 2.25 s⁻¹
